According to PMC6220998:

Experiments:
[1] = biological target: KAT1 K+ channel of Arabidopsis, myc-tagged (Arabidopsis) (UniProt Q39128)
[2] = biological target: KAT1 K+ channel of Arabidopsis, myc-tagged (Arabidopsis) (UniProt Q39128); remark: listed apart in the source

Sequence of UniProt Q39128 (Q39128 whole entry): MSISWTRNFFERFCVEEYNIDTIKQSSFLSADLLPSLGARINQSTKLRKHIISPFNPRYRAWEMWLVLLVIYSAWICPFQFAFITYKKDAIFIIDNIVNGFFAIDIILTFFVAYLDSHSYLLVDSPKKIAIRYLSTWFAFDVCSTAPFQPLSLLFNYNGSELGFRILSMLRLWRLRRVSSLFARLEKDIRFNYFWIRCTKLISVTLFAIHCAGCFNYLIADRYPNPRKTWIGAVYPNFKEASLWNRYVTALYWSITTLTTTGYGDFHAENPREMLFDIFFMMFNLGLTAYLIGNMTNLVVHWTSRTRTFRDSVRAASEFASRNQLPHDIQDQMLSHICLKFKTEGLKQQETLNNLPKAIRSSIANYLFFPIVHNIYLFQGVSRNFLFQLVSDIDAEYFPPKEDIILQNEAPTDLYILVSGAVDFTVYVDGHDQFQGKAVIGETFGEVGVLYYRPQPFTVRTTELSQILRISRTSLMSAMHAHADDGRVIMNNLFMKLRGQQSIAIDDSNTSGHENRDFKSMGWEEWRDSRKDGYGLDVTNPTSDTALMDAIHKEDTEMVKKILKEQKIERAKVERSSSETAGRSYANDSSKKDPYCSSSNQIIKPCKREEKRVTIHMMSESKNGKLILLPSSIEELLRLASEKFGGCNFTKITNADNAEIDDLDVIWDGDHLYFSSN

Substance	amount of SYP121^ΔC in the oocyte that gives a near-maximal effect on KAT1 gating (roughly 0.4 ng per oocyte) [1] [µM]	single-channel open probability Po of KAT1 at −120 mV after adding 1 μM SYP121^ΔC to inside-out patches [2] [%]
SYP121^ΔC, cytosolic SNARE domain, expressed in oocytes (domain or fragment)	0.14	–
SYP121^ΔC, soluble cytosolic domain, recombinant (domain or fragment)	–	3.4
